Test results from patent US9549967B2, “Regulation of sodium channels by PLUNC proteins” (The University of North Carolina at Chapel Hill, priority 2009, dated 2017).

Target: T1, ENaC containing the βS518C mutant (Rattus norvegicus, UniProt P37089+P37090+P37091, S518C)
T1 construct: expressed in transfected cells; host or cells: Xenopus oocytes
T1 sequence (P37089 1-698): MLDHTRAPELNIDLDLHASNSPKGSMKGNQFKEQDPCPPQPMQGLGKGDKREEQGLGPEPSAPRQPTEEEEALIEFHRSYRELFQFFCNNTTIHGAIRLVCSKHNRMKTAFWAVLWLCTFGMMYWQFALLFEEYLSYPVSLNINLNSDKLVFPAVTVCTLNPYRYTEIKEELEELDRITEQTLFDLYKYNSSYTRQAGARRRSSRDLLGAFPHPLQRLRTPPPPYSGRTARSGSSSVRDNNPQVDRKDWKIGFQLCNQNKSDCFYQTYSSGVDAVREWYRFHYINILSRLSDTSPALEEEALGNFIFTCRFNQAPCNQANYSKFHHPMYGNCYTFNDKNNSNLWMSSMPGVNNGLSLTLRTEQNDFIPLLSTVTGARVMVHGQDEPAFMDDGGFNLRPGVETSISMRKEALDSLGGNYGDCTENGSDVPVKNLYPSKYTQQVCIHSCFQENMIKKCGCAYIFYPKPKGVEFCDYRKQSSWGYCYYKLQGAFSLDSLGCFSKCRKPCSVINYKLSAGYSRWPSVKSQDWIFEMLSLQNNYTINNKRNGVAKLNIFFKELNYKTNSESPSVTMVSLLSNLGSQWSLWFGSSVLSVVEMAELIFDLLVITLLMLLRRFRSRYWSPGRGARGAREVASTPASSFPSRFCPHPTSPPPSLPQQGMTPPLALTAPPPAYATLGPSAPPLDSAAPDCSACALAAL
T1 sequence (P37090 1-638 S518C): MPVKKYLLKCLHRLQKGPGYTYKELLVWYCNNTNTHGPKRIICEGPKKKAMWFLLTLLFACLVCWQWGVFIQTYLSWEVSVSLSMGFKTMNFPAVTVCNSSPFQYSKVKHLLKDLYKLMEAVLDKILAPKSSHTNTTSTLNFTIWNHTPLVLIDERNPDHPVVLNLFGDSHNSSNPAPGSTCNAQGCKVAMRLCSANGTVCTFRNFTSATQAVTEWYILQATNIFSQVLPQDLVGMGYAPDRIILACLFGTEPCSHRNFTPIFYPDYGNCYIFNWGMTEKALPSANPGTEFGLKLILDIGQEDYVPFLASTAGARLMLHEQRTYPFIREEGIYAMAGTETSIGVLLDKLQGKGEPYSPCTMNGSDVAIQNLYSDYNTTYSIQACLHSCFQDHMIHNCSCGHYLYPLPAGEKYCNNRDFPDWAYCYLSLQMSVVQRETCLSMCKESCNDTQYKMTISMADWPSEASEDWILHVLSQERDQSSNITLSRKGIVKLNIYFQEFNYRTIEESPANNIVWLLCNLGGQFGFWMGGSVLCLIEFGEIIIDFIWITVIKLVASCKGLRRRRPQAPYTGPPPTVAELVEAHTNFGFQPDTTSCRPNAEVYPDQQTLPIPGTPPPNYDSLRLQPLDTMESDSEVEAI
T1 sequence (P37091 1-650): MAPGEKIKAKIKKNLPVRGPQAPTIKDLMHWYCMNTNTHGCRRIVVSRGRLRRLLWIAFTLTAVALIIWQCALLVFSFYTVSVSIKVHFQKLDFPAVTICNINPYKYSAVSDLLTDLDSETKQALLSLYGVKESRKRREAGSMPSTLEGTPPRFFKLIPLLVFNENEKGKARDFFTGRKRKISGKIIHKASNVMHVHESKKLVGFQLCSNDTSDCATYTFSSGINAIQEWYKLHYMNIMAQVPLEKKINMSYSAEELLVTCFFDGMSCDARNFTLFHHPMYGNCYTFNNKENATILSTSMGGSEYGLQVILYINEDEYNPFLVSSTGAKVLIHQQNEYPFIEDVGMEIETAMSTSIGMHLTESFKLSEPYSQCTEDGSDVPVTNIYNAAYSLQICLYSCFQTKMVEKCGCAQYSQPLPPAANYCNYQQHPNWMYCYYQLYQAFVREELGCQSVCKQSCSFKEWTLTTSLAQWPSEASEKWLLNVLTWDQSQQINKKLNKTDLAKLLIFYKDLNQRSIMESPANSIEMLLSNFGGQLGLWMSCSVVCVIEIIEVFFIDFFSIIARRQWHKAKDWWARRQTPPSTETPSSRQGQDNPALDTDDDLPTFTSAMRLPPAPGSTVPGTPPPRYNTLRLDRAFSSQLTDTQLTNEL
Test: Oocyte current of ENaC containing the βS518C mutant with MTSET
Type: cell-based
Details: SPLUNC1 coexpression, n=6
Method: Oocyte studies. Xenopus laevis oocytes were harvested and injected as described (Donaldson, et al., J. Biol. Chem. 277:8338 (2002)). Defolliculated healthy stage V-VI oocytes were injected with 0.3 ng of cRNA of each ENaC subunit. Injected oocytes were kept in modified Barth's saline (in mM: 88 NaCl, 1 KCl, 2.4 NaHCO3, 0.3 Ca(NO3)2, 0.41 CaCl2, 0.82 MgSO4, and 15 HEPES, adjusted to pH 7.35 with Tris). Oocytes were studied 24 hr after injection using the two electrode voltage clamp technique as previously described (Donaldson, et al., J. Biol. Chem. 277:8338 (2002)). Oocytes were clamped at a holding potential of […]. The change in amiloride-sensitive whole cell current as an indicator of ENaC activity was determined by subtracting the corresponding current value measured in the presence of 10 μM amiloride from that measured before the application of amiloride.
The effect of SPLUNC1 on the number of ENaC channels in the plasma membrane was tested by expressing SPLUNC1 and αENaC in Xenopus oocytes. After surface biotinylation of αENaC, total lysate was prepared and lysate from 3-4 eggs was separated on a 10% gel.

B1: SPLUNC1: human SPLUNC1, 256 amino acid secreted PLUNC protein (SEQ ID NO:1); rSPLUNC1 = V5/6His-tagged protein purified from HEK293 media (protein, listed as Homo sapiens)
chain: MFQTGGLIVFYGLLAQTMAQFGGLPVPLDQTLPLNVNPALPLSPTGLAGSLTNALSNGLLSGGLLGILENLPLLDILKPGGGTSGGLLGGLLGKVTSVIPGLNNIIDIKVTDPQLLELGLVQSPDGHRLYVTIPLGIKLQVNTPLVGASLLRLAVKLDITAEILAVRDKQERIHLVLGDCTHSPGSLQISLLDGLGPLPIQGLLDSLTGILNKVLPELVQGNVCPLVNEVLRGLDITLVHDIVNMLIHGLQFVIKV
modifications: V5/6His tag
notes: rSPLUNC1 = V5/6His-tagged protein purified from HEK293 media
overall current with MTSET: still reduced
